Reference: paper PMC9096947
Values joined by “and” are separate entries in the source; they are usually repeats but may differ in a detail not shown here. Equal entries are not always repeated.

Tested on: CodY (Streptococcus agalactiae (Group B Streptococcus) BM110)
Assay: EMSA
Details: EMSA as in Barbieri et al. 2015 (buffer, salt, pH, temperature not given); 50 nM FAM probe; 5% non-denaturing Tris-glycine polyacrylamide gel; 10 mM each ILV …

Q: With livKp220 (livK regulatory region, WT) as the substance, how does the Kd read?
A: The Kd was 50 nM and 150 nM.
